In patent publication US12296016B2, “Ceramide-like lipid-based delivery vehicles and uses thereof” (Children's Medical Center Corporation, priority 2018, dated 2025):

Tests used:
[1] = mouse, in vivo, 2.5 nmol/kg
Experimental: The dose was 2.5 nmol/kg for 7 week old C57B/6J with an intranasal administration volume of 10 μL and an intraperitoneal injection volume of 200 μL.

[2] = Bioavailability and pharmacokinetics of peptide fused to GM1-C4:0 in rat (gastric route or intravenous injection); settings: day one after intravenous injection
Experimental: Next, the bioavailability and pharmacokinetics of a peptide fused to GM-C4:0 was tested in vivo in rat.

[3] = mice, gastric gavage
Experimental: FIGS. 4A-4D. In vivo mouse studies. Absorption from intestine into blood for GM-fusion molecules 15 and 30 minutes after gastric gavage (FIG. 4A), and absorption from intestine into liver for GM-fusion molecules 1 hour after gastric gavage (FIG. 4B) are shown. […] Time course for absorption into blood was plotted (FIG. 4C). N=3 independent studies.

MDCK cells = experiment: Transcytosis in MDCK cells (transwell assay, streptavidin pull-down, fluorescence)
Experimental: The in vitro transport (transcytosis) of the peptide-GM1 conjugates across a monolayer of MDCK cells, and in vivo transport across an intestinal or nasal barrier into the blood are assessed. The peptide alone are used as negative controls, and the GM1 analogs as positive controls. C6, and C12 fatty acid analogs of ceramide were also included in the experiments as direct comparisons to the GM1 and GM3 species.
MDCK cells were seeded in 0.33 cm^2 inserts 3 days prior in media containing HBSS and […] defatted BSA. Electrical resistance was checked on day of experiment.
• 1) peptide Control • 2) GM1-C6:0-peptide • 3) Peptide-C12 fatty acid • 4) Ceramide-C2-
• 1) Check electrical resistance by EVOM. • 2) Prepare stock solutions above. • 3) Wash cells apical and basolateral with HBSS, without FBS. […]
• 1) Washed Stretavidin Magnetic beads with TBS-T 4×, to remove azide. • 2) Resuspend heads in 800 uL TBS then aliquoted 50 uL out to each tube • 3) Add 1000 μL to streptavidin heads overnight at 4° C. with rotation O/N covered in foil. • 4) Remove media and wash 3×TBS-T. • 5) Elute by addition of 220 ul 95% Formamide. 10 mM EDTA 0.4 mg/ml biotin—2 min@65° C. • 6) Pipetted 100 uL of each sample×2 on 96 well plate • 7) Fluorescence was read out on a microplate reader for Fluorescein channel, and against a standard curve. […]

[4] = test system: human microvascular endothelial cells (HMECs); experiment: Confocal fluorescence microscopy of lysosomal transport of GM1-peptides in HMECs; format: cell-based; settings: 2 μM, 1 hour continuous uptake, Lysotracker-Red
Experimental: FIGS. 25A-25C. Confocal fluorescence microscopy images of lysosomal transport of GM1-peptides. (FIG. 25A) A schematic of endosomal sorting in human microvascular endothelial cells (HMECs). (FIG. 25B) Images HMECs incubated either with C16:0-GM1-peptide (top panels), or peptide alone (bottom panel). Cells were treated with 2 μM fluorescently green labeled compound for 1 hour for continuous uptake on coverslips, and imaged in the presence of Lysotracker-Red (red). […] Scale bars=10 μm.

T84 intestinal cells = experiment: Transcytosis across T84 intestinal cells; format: in vitro ADME
[5] = Nasal absorption of ceramide-C6 reporter peptide conjugate in mice; format: in vivo, C57BL/6J mice; settings: 2 nmol/kg, blood 15 minutes post dose
Experimental: A reporter peptide was conjugated to a ceramide-C6 (Cer-C6) was administered to C57BL/6J mice (n=1, from Jackson Labs) at a dose of 2 nmol/kg. GM1-C6 conjugated to the same reported peptide was used as control. A total of 5 μl per nostril was administered over 5 minutes under isoflurane. Blood was collected via cardiac puncture 15 minutes post dose and the amount of the conjugate was evaluated by pulling down with magnetic streptavidin beads followed by elution and plate fluorescence measurement.

Molecule: N=C(N)NCCC[C@@H](NC(=O)CNC(=O)[C@@H](Cc1ccc(O)cc1)NC(=O)CNC(=O)[C@@H](CO)NC(=O)CNC(=O)[C@@H](CCCCNC(=O)CCCC[C@@H]1SC[C@@H]2NC(=O)N[C@@H]21)NC(=O)[C@H](N)Cc1cn(CCCCCCNC(=O)c2ccc(-c3c4ccc(=N)c(S(=O)(=O)O)c-4oc4c(S(=O)(=O)O)c(N)ccc34)c(C(=O)O)c2)nn1)C(=O)NCC(=O)N[C@H](CO)C(=O)NCC(=O)N[C@H](CCCCNC(=O)CON)C(N)=O [peptide alone]
- bioavailability [1]: 1.3%
- level in rat serum [2]: 10.8 nmol/kg
- absorption from intestine into blood and liver [3]: not absorbed
- transcytosis across MDCK cell monolayer (MDCK cells; apical to basolateral, 37° C.): did not cross the epithelial barrier
- intracellular localization [4]: did not enter into cells

Molecule: CCCCCCCCCCCCC/C=C/[C@@H](O)[C@H](CO[C@@H]1O[C@H](CO)[C@@H](O[C@@H]2O[C@H](CO)[C@H](O[C@@H]3O[C@H](CO)[C@H](O)[C@H](O[C@@H]4O[C@H](CO)[C@H](O)[C@H](O)[C@H]4O)[C@H]3NC(C)=O)[C@H](O[C@]3(C(=O)O)C[C@H](O)[C@@H](NC(C)=O)[C@H](C=NOCC(=O)NCCCC[C@@H](NC(=O)CNC(=O)[C@@H](CO)NC(=O)CNC(=O)[C@@H](CCCNC(=N)N)NC(=O)CNC(=O)[C@@H](Cc4ccc(O)cc4)NC(=O)CNC(=O)[C@@H](CO)NC(=O)CNC(=O)[C@@H](CCCCNC(=O)CCCC[C@@H]4SC[C@@H]5NC(=O)N[C@@H]54)NC(=O)[C@H](N)Cc4cn(CCCCCCNC(=O)c5ccc(-c6c7ccc(=N)c(S(=O)(=O)O)c-7oc7c(S(=O)(=O)O)c(N)ccc67)c(C(=O)O)c5)nn4)C(N)=O)O3)[C@H]2O)[C@H](O)[C@H]1O)NC(=O)CCCCC [peptide fused to GM1-C6:0]
- bioavailability [1]: 24.4%

Molecule: AF488-LC9-oxime-C6-ceramide [Cer-C6]
- transport with 4° C. temperature block (MDCK cells; MDCK): reduced the uptake
- transcytosis across T84 intestinal cells (T84 intestinal cells): greater than for peptides fused to GM1 or GM3 species
- absorption via the nose [5]: absorbed more efficiently than peptide conjugated to GM1-C6
- absorption via the nose ([5]; listed as ceramide C6): absorbed via the nose
- absorption via the nose ([5]; listed as ceramide-C6-reporter peptide conjugate): can be absorbed via nose in mice

Molecule: glucagon-like peptide-1 (GLP-1) [GLP-1 peptide alone]
- effect on glucose metabolism in glucose tolerance test (mice, gastric gavage): no detectable effect on glucose metabolism
- absorption after gastric gavage (mouse, in vivo): not absorbed
